Values quoted from earlier work as cited in PMC10673186.
pKd: −log10 of the molar value.

Target: SIRPα (Homo sapiens) (UniProt P78324)
Chain of UniProt P78324 (P78324 31-373): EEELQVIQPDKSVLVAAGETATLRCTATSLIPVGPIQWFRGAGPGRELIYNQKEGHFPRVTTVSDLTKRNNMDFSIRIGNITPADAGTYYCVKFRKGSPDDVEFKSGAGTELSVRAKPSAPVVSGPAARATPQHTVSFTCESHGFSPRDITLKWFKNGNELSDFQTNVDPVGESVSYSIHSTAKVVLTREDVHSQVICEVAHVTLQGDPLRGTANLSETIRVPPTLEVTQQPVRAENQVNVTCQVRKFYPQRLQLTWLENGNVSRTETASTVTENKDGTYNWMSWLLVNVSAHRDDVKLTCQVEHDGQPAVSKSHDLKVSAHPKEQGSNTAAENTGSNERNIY

**Q.** With CD47 (from UniProt Q08722) as the substance, how does the pKd read?
**A.** 6.00
